Assay: soluble on expression in E. coli; label from the status in PepcDB or PDB records

| Sequence | soluble on expression in E. coli |
| --- | --- |
| MNKLLPTSTAGSLPKPSWLAQPEKLWSPWKLQDEELTEGKQDALRLSLQEQQHAGIDIVSDGEQTRQHFVTTFIEHLSGVDFEKRETVRIRNRYDASVPTVVGAVSRPKPVFVDDAKFLRQQTRQPIKWALPGPMTMIDTLFDAHYKSREKLAWEFAKILNQEAKELEAAGVDIIQFDEPAFNVFFDEVNDWGVATLERAIEGLNCETAVHICYGYGIKANTDWKQTLGSEWRQYEESFPKLQASTIDIVSLECHNSHVPIDLIELVRGKKVMVGAIDVASNTIETPQEVADTLRKALRFVDADKLYPSTNCGMAPLARHVARGKLSALSAGADIIRAELSAQLEHHHHHH | not soluble |
| MNKLVCSTFAILAIIAISQVQSAVLPVSSKEVALITSSASTTSSSETSIDTLGSSRVKRQGGCGCCGCGCGCCGCGGGGGGGCGCCCCRPKCCCCCRRCCTCCRTCCCTRCCTCCRPCCCGCGCGCGCCGCGGGGRKRRSLQNLRIALANKIEGIAKVVKGSAVEASVMNALAPVNDATVEEKKDVIN | not soluble |
| MNKNLKFTQMMIGISTMALSFGSIQTHVSAEETASYNILQMKPIGTETSKDEIVHATKADETLTFEERLKVGDFSQRPTLVMERDEIQLKQSYTLAELNKMPNSELIDTLSKISWNQITDLFQFNQDTKAFYQNKERMNVIINELGQRGRTFTKENSKGIETFVEVLRSAFYVGYYNNELSYLKERSFHEKCLPALKAIAKNPNFTLGTAEQDRVVAAYGKLIGNASSDTETVQYAVNVLKQYNDNLTTYVSDYAKGQAVYEIVKGIDYDIQSYLQDTNKQPNETMWYGKIDNFINEVNRIALVGNITNENSWLINNGIYYAGRLGKFHSNPYKGLEVITQAMSLYPRLSGPYFVAVEQIKTNYGGKDYSGKAVDLQKIREEGKRQYLPKTYTFDDGSIVFKTGDKVTEEKIKRLYWAAKEVKAQYHRVIGNDKALEPGNADDVLTIVIYNNPDEYQLNRQLYGYETNNGGIYIEEKRTFFTYERTPKQSIYSLEELFRHEFTHYLQGRYEVPGLFGSGEMYQNERLTWFQEGNAEFFAGSTRTNNVVPRKSMISGLSSDPASRYTAKQTLFSKYGSWDFYKYSFALQSYLYNHQFDTFDKLQDLIRVNDVKNYDSYRESLSNNTQLNAEYQAYMQQLIDNQDKYNVPQVTNDYLIQHAPKPLAEVKNEIVDVANIKDAKITKYESQFFNTFTVEGKYTGGTSKGESEDWKTMSKQVNRTLEQLSQKGWSGYKTVTAYFVNYRVNAANQFEYDIVFHGVATEEKEKTNTIVNMNGPYSGIVNEEIQFHSDGTKSENGKVTSYLWNFGDGTTSTEANPTHVYEEKGTYTVELTVKDRRGKESKEQTKVTVKQDPQTGEFHEEEKVLLFNTLVKGNLVTPDQTDVYTFDVTDTKEVDISVVNEQNIGMTWVLYHESDMQNYVACGEDEGNVIKGKFEAKPGKYYLNVYKFDDKNGEYSLLVK | not soluble |
| MNKVVLLCRPGFEKECAAEITDKAGQREIFGFARVKENAGYVIYECYQPDDGDKLIRELPFSSLIFARQWFVVGELLQHLPPEDRITPIVGMLQGVVEKGGELRVEVADTNESKELLKFCRKFTVPLRAALRDAGVLANYETPKRPVVHVFFIAPGCCYTGYSYSNNNSPFYMGIPRLKFPAEAPSRSTLKLEEAFHVFIPADEWDERLANGMWAVDLGACPGGWTYQLVKRNMWVYSVDNGPMAQSLMDTGQVTWLREDGFKFRPTRSNISWMVCDMVEKPAKVAALMAQWLVNGWCRETIFNLKLPMKKRYEEVSHNLAYIQAQLDEHGINAQIQARQLYHDREEVTVHVRRIWAAVGGRRDER | not soluble |
| MNLFGQKDRGNHVSGVDRGKVIMYGLSTCVWCKKTKKLLTDLGVDFDYVYVDRLEGKEEEEAVEEVRRFNPSVSFPTTIINDEKAIVGFKEKEIRESLGF | soluble |
| MNLIKEDMRVKVHMEGNVNGHAFVIEGEGKGKPYEGTQTANLTVKEGAPLPFSYDILTTAVHYGNRVFTKYPEDIPDYFKQSFPEGYSWERTMTFEDKGICTIRSDISLEGDCFFQNVRFKGTNFPPNGPVMQKKTLKWEPSTEKLHVRDGLLVGNINMALLLEGGGHYLCDFKTTYKAKKVVQLPDAHFVDHRIEILGNDSDYNKVKLYEHAVARYSPLPSQVWHHHHHH | soluble |
| MNLKQLEVFLAVAESGSFSRGAEATFLTQSTVSQHIAALESEVGVRLLDRTSRGALLTEGGKILLEHARKVVAGSREISKVMRRFRGLEEAELRIGGSTIPADYMIPAMLASFLGRHPGVQVTLLQGDSRDILDRIEREDAEVGIIGSRFDEEGFTFTPLGRDEIRLIAAPDHPLAGTGAVPLAELANHGFVFRELGSGTAKSVAEALAGAGLPAEKLHVRACLGSNEAVKQAVAAGLGLSFVSELSVRKELARGELVELPVEGLTIARTFYLVARTGRELSPPAVAFIGELTGTRLA | not soluble |
| MNLPAHTALFTPSWHAELELGYGRFYDCTRPTQRRHKGPLRVQKHLYAEGPEVCQHIIVHPPGGIAGGDRLDISVNVGAHAWAQLTSPGAAKWYRAASPAFQQLELHVQPGATLEWLPQETIVFSNAQAELTTRIELHGDARLCYWDVVALGRPASGERFEHGHFQSHLDIRRDGTLLWHERQRIIGADGLLDSPIGLDGKTVFATLLLTGDVDSDLLEVCRSLSMPSPVRGNLTQLPGLIVARCLADEALHARAWLIEIWKRLRPALLGREAVMPRIWNTLEHHHHHH | not soluble |
| MNLPLEYHPFPAILPKSATVAMLGTFPPTSEKRCMEFHYPNFQNDMWRIMGLLFYKNLDHFRVDQEKRFDPVRIEAFLREKGIALCSSAQTAIRLKGNASDKDLKIIDAIDMQALLTELPQLKWLFTTGGLATETLLSLLPEKSKLPKTNEWINYPYTTDRTLYLYRLPSTSRAYPLSLAKKVEAYRQFFVRVGLEHHHHHH | not soluble |
| MNLRIPWKEVYYLGYNMGNYIKISEPELLFVLRNKPQIKDRLKLDEKTIIKEGVKKYKNFWEIYYTVKDLILRGYRVRFDGFFIELYEKGIIPGTIEQDYLVYPVSGEIRMTWGELLDIYNKAIARKSKFMLAIVDSEGDVTYYEFRKLRSNK | soluble |
| MNMVSQGVKGGEYRSPQKNYTQLTFKNVDAIGHPQGAISQMLNSTGYYCQSQTTPFVPYFLSSLDFFAWRQAIPEMFYPEALVPGMREIRGNGETWGNIFPRSGAVTQVDDYKASAVSVHRVADFLTRMAQPHIYLPTAKQEQGQNGHWYPDPVQEGEVGNHKWQQLHPQLSQSCSIFPDTPPAQLSENGSYAWALWRPYKCCKRRGQTFLYSVDWSNLEHHHHHH | not soluble |
| MNNHFKCIGIVGHPRHPTALTTHEMLYRWLCDQGYEVIVEQQIAHELQLKNVPTGTLAEIGQQADLAVVVGGDGNMLGAARTLARYDINVIGINRGNLGFLTDLDPDNALQQLSDVLEGRYISEKRFLLEAQVCQQDRQKRISTAINEVVLHPGKVAHMIEFEVYIDETFAFSQRSDGLIISTPTGSTAYSLSAGGPILTPSLDAITLVPMFPHTLSARPLVINSSSTIRLRFSHRRSDLEISCDSQIALPIQEGEDVLIRRCDYHLNLIHPKDYSYFNTLSTKLGWSKKLFMAGDPLEHHHHHH | not soluble |
| MNNNTTAPTYTLRGLQLIGWRDMQHALDYLFADGQLKQGTLVAINAEKMLTIEDNAEVRELINAAEFKYADGISVVRSVRKKYPQAQVSRVAGADLWEELMARAGKEGTPVFLVGGKPEVLAQTEAKLRNQWNVNIVGSQDGYFKPEQRQALFERIHASGAQIVTVAMGSPKQEIIMRDCRLVHPDALYMGVGGTYDVFTGHVKRAPKIWQTLGLEWLYRLLSQPSRIKRQLRLLRYLRWHYTGNL | soluble |
| MNNQLVISDYIFPIHQYGKMGTIHSVFERSFNLKVQDQLINVANFHNYLSSFGMFLPDQLFQEIFPYVQQGNKVKITENQLTFYSTVGVKTIQLTPAEVVSLNITHFKLEKDQLRLLRDRLLARNLERRIGLPLDERAKHIFKKMSQKQKVWTLSEWQEVTNYLIGRGKGLTPSGDDILVAYQTILFILADERAAALAATLSAANLSTTDVSKGYIASSAKGYVNSLLYQLLLDLENHRDNRVDENIDRIIQIGHSSGKDMSFGMLLALQSVELDEK | not soluble |
| MNNSEQLIALKESETAFLKYFNKADYELVDFSVVEKLDWKQLNHEDLQQMGERNFWQHEHQIYALRNDFTDQLLRYYSMYPTAATKVAYTGLIIRNNEAAVQVGLENYAPSLANVQQSLKLFIQFIQQQLRDNVHFVVLGHYQLLDALLDKSLQTPDILSMIEERNLSGLVTYLSTEHPIVQILKENTQQQLNVLEHYIPNDHPALVELKIWERWLHTQGYKDIHLDITAQPPRSYYTGLFIQCHFAENESRVLTGGYYKGSIEGFGLGLTL | soluble |
| MNPGGAEVSVVIPAWNAEATLGRALASVRAQTLAPRQVIVVNDGSSDATPEIAARMATKTFPVTVIDRTGRGSGPAAARNAGIAAAGEPFVAFLDADDVWLPDKLARQMAALRASPDAVLCCCDAQWVGEDAPARTAHPTIYEDRPIKGGAEAWKEILLDCYVGTPCVVARRAALIEAGGFDERLVVGEDQDLWIRLALQGPVIALPEVLVRYGLSADSHMARHRALAASLWLPHFEALVSGLGARLSAGERDAILRARLWRMARSVYLDGRKDLGLSLMARAVAHGLPRRARMVFLARARLRSALGRNGLEHHHHHH | not soluble |
| MNPKHFIAFSALFAATQAEALPVASVSPDTVTVSPSAPYTDTNGLLTDYGNAAASPWMKKLRSVAQGSGEAFRILQIGDSHTAGDFFTDALRKRLQKTWGDGGIGWVYPANVKGQRMAAVRYNGNWQSLNSRSAAADFPLGGILAQTGSGGSMTLTASDGKTGKQRVSLFAKPLLAEQTLTVNGNTVSANGGGWQVLDTGAALPLAIQTEMPWDIGFINIENPAGGITVSAMGINGAQLTQWSKWRADRMNDLAQTGADLVILSYGTNEAFNNNIDIADTEQKWLDTVRQIRDSLPAAGILIIGAPESLKNTLGVCGTRPVLLTEVQQMQRRVARQGQTMFWSWQNAMGGICSMKNWLNQGWAAKDGVHFSAQGYRRAAEMLADSLEELVRAAAIR | soluble |
| MNPLRSIQHNITTPPISGGQPLDAVGPQAQQSHPKRISPSQLSQSAHQALERLSANAEHQRLASLVRNALQDGTFQFQSSNHTQVTYKASICLPADTDTVRTDHLINNELTVQARLNDQSEYDIVSAHLHGSSKAISFDVPSPPPAHGSASSVLSERTHLGMSSVLSQDAVDSSSLETPLVSSPDHSRPPSQPKPVHIGSVRRDSGSLVSDNPVVQALLSFVQADQAFPPQAASIAGVQLEMRSRRDIEQALEELKGAFTVEKAQLMSGGSSSERVDEDVNADIHIPLLLKAIERGAGAFGPGALIEIADGGQISAKAFLASCAPTITSNDDVLSEFINQKLKGDDDLQVRLGAQELLHVATKKEFQLGGLAGSIGVSSILGSAWELGASELLKNAIFGKNFSPSQYALQLAGIDSVPPFIIEAMDSFCVLVIIKGMKGELWSMKDLLPKALKAGAISSAMSFPNNVLQYAGFKSRVADLAANSITTEAAIFGAASGIPPEVKESEELMRAGLFQSMKDGVMAHPGEGMDTKETIERMTRHALDIAPGESTAVKSMGLAAIVGMIPLIASSKATGLVSEQILRIFRNAVFNPIEAIALNALALGGRVNVPGLFDSDNAKHARVAQTILARASQHMEAGDREISAEELHQMLAPRSEFLRHVGSAIVNGMNASFEAIPALVRKLGYGEAPLAERIPYQDLAVPDTSRQPAP | not soluble |
| MNPNFTTEHTWQGRHDPEDGQAGRRVHHIACPIQVGELANQEPGVALIGFECDAGVERNKGRTGAKHAPSLIKQALANLAWHHPIPIYDLGNIRCEGDELEQAQQECAQVIQQALPHARAIVLGGGHEIAWATFQGLAQHFLATGVKQPRIGIINFDAHFDLRTFESELAPVRPSSGTPFNQIHHFCQQQGWDFHYACLGVSRASNTPALFERADKLGVWYVEDKAFSPLSLKDHLTQLQHFIDDCDYLYLTIDLDVFPAASAPGVSAPAARGVSLEALAPYFDRILHYKNKLMIADIAEYNPSFDIDQHTARLAARLCWDIANAMAEQVQSIRHP | soluble |

From the DeepSol protein solubility set
